Experimental data from article PMC7210961.

Tests used:
[1] = biological target: human Nav1.7 (hNav1.7), wild type (human) (UniProt Q15858)
[2] = biological target: human Nav1.9 with C-terminal GFP (hNav1.9-GFP), wild type (human) (UniProt Q9UI33)
[3] = biological target: Nav1.8/1.7 DII s3b-s4 chimaera (reverse chimaera: DII s3b-s4 of Nav1.7 built into Nav1.8) (rat | human)
hNav1.7 E818R (human) = hNav1.7 E818R (human) (UniProt Q15858)

HpTx1 (spider peptide toxin; rational nomenclature κ-sparatoxin-Hv1a) (from UniProt P58425 1-33)
dose-dependent inhibition of hNav1.7 currents in HEK293T cells (whole-cell patch clamp), IC50 [1]: 510 nM
inhibition of the fast inactivation of hNav1.9 currents in ND7/23 cells, dose-response (whole-cell patch clamp), EC50 [2]: 470 nM
dose-dependent inhibition of the currents of the reverse chimaeric channel by HpTx1 (whole-cell patch clamp), IC50 [3]: 3000 nM
fold reduction in HpTx1 activity (IC50 of current inhibition) against WT hNav1.7 (whole-cell patch clamp) (hNav1.7 E818R (human)): 20 fold
